# Assay results as given in patent US20030059769, “High affinity nucleic acid ligands to lectins” (published 2003).
# Positions count from the first letter of the chain named.
# T1: L-selectin (LS-Rg) (Homo sapiens, UniProt P14151 P14151:39-332)
# T1 sequence: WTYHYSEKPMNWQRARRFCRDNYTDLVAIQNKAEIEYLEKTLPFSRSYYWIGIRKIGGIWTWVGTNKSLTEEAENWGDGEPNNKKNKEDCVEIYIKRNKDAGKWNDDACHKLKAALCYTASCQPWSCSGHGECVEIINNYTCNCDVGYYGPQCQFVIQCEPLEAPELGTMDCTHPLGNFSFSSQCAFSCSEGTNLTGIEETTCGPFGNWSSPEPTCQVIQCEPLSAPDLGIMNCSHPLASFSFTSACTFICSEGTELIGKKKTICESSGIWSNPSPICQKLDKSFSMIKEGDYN
# T2: L-selectin on PBMC / lymphocytes (Homo sapiens, UniProt P14151 P14151:39-372)
# T2 sequence: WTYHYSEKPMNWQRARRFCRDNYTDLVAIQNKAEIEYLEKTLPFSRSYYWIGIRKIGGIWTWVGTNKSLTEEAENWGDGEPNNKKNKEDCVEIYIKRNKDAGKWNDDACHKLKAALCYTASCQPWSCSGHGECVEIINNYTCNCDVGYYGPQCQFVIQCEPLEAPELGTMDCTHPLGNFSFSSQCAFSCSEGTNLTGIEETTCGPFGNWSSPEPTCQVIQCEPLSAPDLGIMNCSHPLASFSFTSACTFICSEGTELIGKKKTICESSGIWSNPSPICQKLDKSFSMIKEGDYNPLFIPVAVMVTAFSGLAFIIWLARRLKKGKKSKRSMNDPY
# T3: Wheat germ agglutinin (WGA) (Triticum vulgare, UniProt P10968 P10968:27-197)
# T3 sequence: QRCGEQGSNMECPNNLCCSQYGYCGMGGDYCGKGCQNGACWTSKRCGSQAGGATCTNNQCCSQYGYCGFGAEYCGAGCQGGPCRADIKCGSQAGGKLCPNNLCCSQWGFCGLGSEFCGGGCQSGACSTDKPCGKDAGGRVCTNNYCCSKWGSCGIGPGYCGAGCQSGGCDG
# T4: soluble L-selectin (Homo sapiens, UniProt P14151 P14151:39-332)
# T4 sequence: T1 sequence
# B1: LF1614 (ssRNA)
# RNA: GGGAGGACGAUGCGGCAAACAAGCUCAAAUGACGUGUUUUUCAAGUCCUUGUUGUCAGACGACUCGCCCGA
# modifications: 2'-F C and U
# B2: LF1513 (ssRNA)
# RNA: GGGAGGACGAUGCGGGCUCUUCAGCAACGUGUUAUCAAGUUAGCCCAGACGACUCGCCCGA
# modifications: 2'-F C and U
# B3: LF1514 (ssRNA)
# RNA: GGGAGGACGAUGCGGUACCUCAAAUUGCGUGUUUUCAAGCAGUAUCAGACGACUCGCCCGA
# modifications: 2'-F C and U
# B4: LF1618 (ssRNA)
# RNA: GGGAGGACGAUGCGGUUAGCCUACACUCUAGGUUCAGUUUUCGAAUCUUCCACCGCAGACGACUCGCCCGA
# modifications: 2'-F C and U [all C and U 2'-F; W in the 3' fixed region (cagacgacucgcccga) = A]
# B5: WGA ligand 6.5 (ssRNA)
# RNA: GGGAAAAGCGAAUCAUACACAAGAGUCCCUAGGGAUGCAACGGGCAGCAUUCGCAUAGGAGUAAUCGGAGGUCGCUCCGCCAGAGACCAACCGAGAA
# modifications: 2'-NH2 C and U
# B6: LF1808 (ssRNA)
# RNA: GGGAGGACGAUGCGGCAUGGUCUUAGGCGACGCGUUUAUAUCGAGUCACCAUGCUCAGACGACUCGCCCGA
# modifications: 2'-F C and U
# B7: LF1527 (ssRNA)
# RNA: GGGAGGACGAUGCGGACCCUCAAAUAGCGUGCAUUUCAAGCUGGUCAGACGACUCGCCCGA
# modifications: 2'-F C and U
# B8: LF1529 (ssRNA)
# RNA: B7 RNA with G27A, C32U, A33C, C41U
# modifications: 2'-F C and U
# B9: LF1708 (ssRNA)
# RNA: GGGAGGACGAUGCGGAUCUUAAGCAGCGCGUCAAUCGAGCUAACCCAGACGACUCGCCCGAG
# modifications: 2'-F on all C and U
# B10: LF1817 (ssRNA)
# RNA: GGGAGGACGAUGCGGUGCUUAAACAACGCGUGAAUCGAGUUCAUCCACUCCUCCUCAGACGACUCGCCCGA
# modifications: 2'-F on all C and U
# B11: LF1816 (ssRNA)
# RNA: GGGAGGACGAUGCGGUGCUAUUCUUAAGCGGCGUGUAAAUCAAGCUAGAUCAUCGUCAGACGACUCGCCCGA
# modifications: 2'-F C and U
# B12: WGA ligand 6.23 (ssRNA)
# RNA: GGGAAAAGCGAAUCAUACACAAGACUCGGCGGGAAUCGAAAGUGUACUGAAUUAGAACGGUGGGCCUGCUCAUCGUGCUCCGCCAGAGACCAACCGAGAA
# modifications: 2'-NH2 C and U
# B13: LF1613 (ssRNA)
# RNA: GGGAGGACGAUGCGGUGCUAUUCUUAAGCGGCGUGUUUUUCAAGCCAAUAUCAUCAGACGACUCGCCCGA
# modifications: 2'-F C and U
# B14: WGA ligand 6.9 (ssRNA)
# RNA: GGGAAAAGCGAAUCAUACACAAGACUCGGCGGGAACGAAGUGUGUGAGUAACGAUCACUUGGUACUAAAAGCCCGCUCCGCCAGAGACCAACCGAGAA
# modifications: 2'-NH2 on all C and U
# B15: LF1516 (ssRNA)
# RNA: GGGAGGACGAUGCGGUCAUUCUCUAAAAAAGUAUUCCGUACCUCCACAGACGACUCGCCCGA
# modifications: 2'-F on all C and U
# B16: LD201T1 branched dimer (ssDNA)
# DNA: TAGCCAAGGTAACCAGTACAAGGTGCTAAACGTAATGGCTTCGGCTTAC
# modifications: two copies linked 3' ends via five-unit ethylene glycol spacers to 3'-3' symmetric linker
# B17: LF1521 (ssRNA)
# RNA: GAGGACGAUGCGGGCUCUUAAGCAACGUGUUAUCAAGUUAGCCCAGACGACUCGCCCGA
# modifications: 2'-F C and U
# B18: WGA ligand 11.6 (ssRNA)
# RNA: GGGAAAAGCGAAUCAUACACAAGACUGGGGAGCAGGAUAUGAGAUGUGCGGGGCAAUGGAGUCGUGACGAACCGCUCCGCCAGAGACCAACCGAGAA
# modifications: 2'-NH2 on all C and U
# B19: LF1536 (ssRNA)
# RNA: GGGAAGACGAUGCGGCGCUCAAAUAAUGCGUUAAUCGAAUUCGCCCAGACGACUCGCCCGA
# modifications: 2'-F C and U
# B20: LF1528 (ssRNA)
# RNA: GGGAGGACGAUGCGGUUAGGUCAAUGAUCUUAGUUUUCGAUUCGUCAGACGACUCGCCCGA
# modifications: 2'-F C and U
# B21: LF1815 (ssRNA)
# RNA: GGGAGGACGAUGCGGCCAUCGGUCUUGGGCAACGCGUUUUCGAGUUACCUAUGGUCAGACGACUCGCCCGA
# modifications: 2'-F C and U
# B22: LF1712 (ssRNA)
# RNA: GGGAGGACGAUGCGGGAUCUUAAGCAGUGCGUUAUUCGAACUAUCCCAGACGACUCGCCCGA
# modifications: 2'-F C and U
# Experiments:
# L-selectin (LS-Rg) [1] = biological target: T1, L-selectin (LS-Rg); assay: filter; 37 C; conditions: tags: human IgG2 Fc fusion
# Method: (§1) Unless otherwise indicated, all materials used in the 2′-F RNA SELEX against the L-selectin/IgG2 chimera, LS-Rg, were identical to those of Examples 7, paragraph A and 13, paragraph A. SHMCK-140 buffer, used for all SELEX and binding experiments, was 1 mM CaCl₂, 1 mM MgCC₂, 140 mM NaCl, 5 mM KCl. and 20 mM HEPES, pH 7.4. A soluble form of L-selectin, corresponding to the extracellular domains, was purchased from R&D Systems and used for some nitrocellulose filter binding experiments.
# (§2) As described in SELEX Patent Applications, a nitrocellulose filter partitioning method was used to determine the affinity of RNA ligands for LS-Rg and for other proteins. Filter discs (nitrocellulose/cellulose acetate mixed matrix, 0.45 μm pore size, Millipore) were placed on a vacuum manifold and washed with 3 ml of SHMCK 140 buffer under vacuum. Reaction mixtures, containing ³²P labeled RNA pools and unlabeled LS-Rg, were incubated in SHMCK 140 for 10-20 min at 37° C., and then immediately washed with 3 ml SHMCK 140. The filters were air-dried and counted in a Beckman LS6500 liquid scintillation counter without fluor. Alternatively, binding studies employed 96 well micro-titer manifolds essentially as described in Example 13, paragraph E.
# (§3) These calculations assume two ligand binding sites per chimera.
# [2] = biological target: T2, L-selectin on PBMC / lymphocytes; assay: flow; competition with FITC-LD201T1
# Method: Binding of evolved ligands to L-selectin presented in the context of a cell surface was tested by flow cytometry experiments with human lymphocytes. Briefly, peripheral blood mononuclear cells (PBMC) were purified on histoplaque by standard techniques. […] Fluorescent staining of cells was quantified on a FACSCaliber fluorescent activated cell sorter (Becton Dickinson, San Jose, Calif.). The affinity of the 2′-F competitor was calculated from the flurorescence inhibition curves.
# The ability of full length 2′-F ligands to bind to L-selectin presented in the context of a cell surface was tested by competition-flow cytometry experiments with human peripheral blood lymphocytes.
# [3] = biological target: T3, Wheat germ agglutinin (WGA); assay: filter; HBSS, room temperature; conditions: tags: E Y Laboratories
# Method: As described in SEIEX patent applications, a nitrocellulose filter partitioning method was used to determine the affinity of RNA ligands for WGA and for other proteins. Filter discs (nitrocellulose/cellulose acetate mixed matrix, 0.45 μm pore size, Millipore; or pure nitrocellulose, 0.45 μm pore size, Bio-Rad) were placed on a vacuum manifold and washed with 4 ml of HBSS buffer under vacuum. Reaction mixtures, containing ³²P labeled RNA pools and unlabeled WGA, were incubated in HBSS for 10 min at room temperature, filtered, and then imnmediately washed with 4 ml HBSS. The filters were air-dried and counted in a Beckman LS6500 liquid scintillation counter without fluor.
# The dissociation constants for representative members of families 1-9 and orphan ligands were determined by nitrocellulose filter binding experiments and are listed in Table 3. These calculations assume one RNA ligand binding site per WGA monomer.
# L-selectin (LS-Rg) [4] = biological target: T1, L-selectin (LS-Rg); assay: inhibition; sialyl-LewisX competition ELISA; conditions: tags: human IgG2 Fc fusion; chain copies: 2 (stated dimer)
# Method: SLe^X-BSA (Oxford GlycoSystems, Oxford, UK) in 1X PBS, without CaCl₂, and MgCl₂, (GIBCO/BRL) was immobilized at 100 ng/well onto a microtiter plate by overnight incubation at […]. The wells were blocked for 1 h with the assay buffer consisting of 20 mM HEPES, 111 mM NaCl, 1 mM CaCl₂, 1 mM MgCl₂, 5 mM KCl, 8.9 mM NaOH, final pH 8, and 1% globulin-free BSA (Sigma). The reaction mixtures, incubated for 90 min with orbital shaking, contained 5 nM L-Selectin-Rg, a 1:100 dilution of anti-human IgG-peroxidase conjugate (Sigma), and 0 - 50 ruM of competitor in assay buffer. After incubation, the plate was washed with BSA-free assay buffer to remove unbound chimera-antibody complex and incubated for 25 min with O-phenylenediamine dihydrochloride peroxidase substrate (Sigma) by shaking in the dark at 22°0 C. Absorbance was read at 450 nm on a Bio-Kinetics Reader, Model EL312e (Bio-Tek Instruments, Laguna Hills, Calif.). Values shown represent the mean ±s.e from duplicate, or triplicate, samples from one representative experiment.
# Sialyl Lewis^X is the minimal carbohydrate ligand bound by selecting.
# soluble L-selectin [5] = biological target: T4, soluble L-selectin; assay: filter; 37 C, soluble L-selectin; conditions: tags: R&D Systems; label: 32P
# Method: as §1, §2
# soluble L-selectin [6] = biological target: T4, soluble L-selectin; assay: filter; binding undetectable, 37 C; conditions: tags: R&D Systems
# [7] = biological target: T2, L-selectin on PBMC / lymphocytes; assay: flow; half-saturation; conditions: label: 5' fluorescein
# From the text: A variety of monomeric nucleic acid ligands and multivalent Complexes have been examined in flow cytometry.
# soluble L-selectin [8] = biological target: T4, soluble L-selectin; assay: filter; 37 C; conditions: tags: R&D Systems
# Method: as §1, §2, §3
# [9] = chain copies: 2 (stated homodimer)
# [10] = chain copies: homodimer, label: 32P
binder,measurement,setting,value
B1,Kd,L-selectin (LS-Rg) [1]; chain copies: 2 (stated dimer),0.17 nM
B2,Kd,[2],4 nM
B3,Kd,[2],0.8 nM
B4,Kd,[2],25 nM
B5,Kd,[3]; [9],678 nM
TAGCCATTCACCATGGCCCCTTCCTACGTATGTTCTGCGGGTGGCTTA (ssDNA) [LD174T1],IC50,L-selectin (LS-Rg) [4],~3 nM
B6,Kd,L-selectin (LS-Rg) [1]; chain copies: 2 (stated dimer),0.6 nM
B7,Kd,L-selectin (LS-Rg) [1]; chain copies: 2 (stated dimer),0.32 nM
B8,Kd,L-selectin (LS-Rg) [1]; chain copies: 2 (stated dimer),0.6 nM
B9,Kd,"L-selectin (LS-Rg) [1]; chain copies: dimer, label: 32P",70 nM
B10,Kd,soluble L-selectin [5],2.3 nM
B11,binding result,soluble L-selectin [6],no binding
B12,Kd,[3]; [9],824 nM
B13,Kd,[2],0.2 nM
B14,Kd,[3]; [10],396 nM
B15,Kd,soluble L-selectin [5],1.3 nM
B16,EC50,[7],~0.15 nM
AGCTGGCGGTACGGGCCGTGCACCCACTTACCTGGGAAGTGAGCTTA (ssDNA) [LD196T1],IC50,L-selectin (LS-Rg) [4],~3 nM
B17,Kd,soluble L-selectin [8],0.25 nM
B18,Kd,[3]; [10],702 nM
B19,Kd,soluble L-selectin [8],0.22 nM
B20,binding result,soluble L-selectin [6],no binding
B21,Kd,soluble L-selectin [8],0.18 nM
B22,Kd,soluble L-selectin [8],0.065 nM
